Test results taken from article PMC3059353.

Substrate: Nc1ncnc2nc[nH]c12
Test: steady-state kinetics of purified enzyme, GDH-coupled ammonia assay
Type: biochemical, Agrobacterium fabrum
Details: binuclear Mn2+ active site at binuclear metal center (adenine pose only modeled)

B1: adenine deaminase Atu4426 (Agrobacterium fabrum str. C58) (protein)
chain: MTAQIRLAEPADLNDDTLRARAVAAARGDQRFDVLITGGTLVDVVTGELRPADIGIVGALIASVHEPASRRDAAQVIDAGGAYVSPGLIDTHMHIESSMITPAAYAAAVVARGVTTIVWDPHEFGNVHGVDGVRWAAKAIENLPLRAILLAPSCVPSAPGLERGGADFDAAILADLLSWPEIGGIAEIMNMRGVIERDPRMSGIVQAGLAAEKLVCGHARGLKNADLNAFMAAGVSSDHELVSGEDLMAKLRAGLTIELRGSHDHLLPEFVAALNTLGHLPQTVTLCTDDVFPDDLLQGGGLDDVVRRLVRYGLKPEWALRAATLNAAQRLGRSDLGLIAAGRRADIVVFEDLNGFSARHVLASGRAVAEGGRMLVDIPTCDTTVLKGSMKLPLRMANDFLVKSQGAKVRLATIDRPRFTQWGETEADVKDGFVVPPEGATMISVTHRHGMAEPTTKTGFLTGWGRWNGAFATTVSHDSHNLTVFGGNAGDMALAANAVIGTGGGMAVASEGKVTAILPLPLSGLVSDAPLEEVARAFEDLREAVGKVVEWQPPYLVFKACFGATLACNIGPHQTDMGIADVLTGKVMESPVIEVLG
Km: 320 ± 40 µM
